Drawing on patent US20230173068A1 (BIO THERA SOLUTIONS, published 2023), this text covers Kd for 1 molecule.

The Kd is the equilibrium constant for the complex coming apart. Low readings indicate tighter binding, high ones weaker binding.

Assay [1] addresses T1, FcRn-biotin (ACRO Biosystems, Cat #FCM-H82W4) (UniProt P55899 24-297; P61769 21-119, biotin (site not stated)).
T1 construct: Bought biotinylated protein, immobilised on a streptavidin (SA) biosensor; the natural receptor is a heterodimer of FCGRT and B2M
The assay can be described thus: BLI (Octet QKe), FcRn-biotin on SA biosensor, antibody as analyte. The method, then: The cycle of regeneration and neutralization was performed 3 times.
Background: Biolayer interferometry detects binding as a change in optical thickness at a sensor tip.

Assay [2] addresses T2, FcγRIIIa (F158)-biotin (ACRO Biosystems, Cat #CDA-H82E8) (UniProt P08637 17-208, biotin (site not stated)).
T2 construct: Bought biotinylated protein, immobilised on an SA biosensor
The assay can be described thus: BLI (Octet QKe), FcγRIIIa (F158)-biotin on SA biosensor, antibody as analyte. The method, then:
Specific experimental method for binding to FcγRIIIa (F158) were as follows. FcγRIIIa (F158)-biotin (ACRO Biosystems, Cat #CDA-H82E8) was diluted to 1 μg/mL. An SA Biosensor (Fertebio, Cat #18-5019) was immobilize in FcγRIIIa (F158)-biotin dilution to a signal of approximately 0.6 nm.
The cycle of regeneration and neutralization was performed 3 times. The data was processed and analyzed using Data Analysis 8.2, and the sample data was fitted after sample blank (PBS) signal subtraction to obtain an affinity constant (KD).

Assay [3] has as its target T3, FcγRIIIa (V158)-biotin (ACRO Biosystems, Cat #CDA-H82E9) (UniProt P08637 17-208, biotin (site not stated)).
T3 construct: Bought biotinylated protein, immobilised on an SA biosensor
As to the kind of experiment: BLI (Octet QKe), FcγRIIIa (V158)-biotin on SA biosensor, antibody as analyte. The method, then:
Specific experimental method for binding to FcγRIIIa (V158) were as follows. FcγRIIIa (V158)-biotin (ACRO Biosystems, Cat #CDA-H82E9) was diluted to 1 μg/mL. An SA Biosensor (Fertebio, Cat #18-5019) was immobilize in FcγRIIIa (V158)-biotin dilution to a signal of approximately 0.6 nm. […] The cycle of regeneration and neutralization was performed 3 times. The data was processed and analyzed using Data Analysis 8.2, and the sample data was fitted after sample blank (PBS) signal subtraction to obtain an affinity constant (KD).

T3 sequence (P08637 17-208 F176V): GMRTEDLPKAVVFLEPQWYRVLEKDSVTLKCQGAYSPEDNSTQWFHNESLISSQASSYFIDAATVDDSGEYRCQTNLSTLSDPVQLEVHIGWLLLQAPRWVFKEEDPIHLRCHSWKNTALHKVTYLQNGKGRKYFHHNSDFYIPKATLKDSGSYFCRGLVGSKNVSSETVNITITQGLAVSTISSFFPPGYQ
T2 sequence (P08637 17-208 limits assumed): as the sequence (P08637 17-208 F176V) above, with V160F counted along it
T1 sequence (P55899 24-297 limits assumed, form in doubt, chain 1 of 2): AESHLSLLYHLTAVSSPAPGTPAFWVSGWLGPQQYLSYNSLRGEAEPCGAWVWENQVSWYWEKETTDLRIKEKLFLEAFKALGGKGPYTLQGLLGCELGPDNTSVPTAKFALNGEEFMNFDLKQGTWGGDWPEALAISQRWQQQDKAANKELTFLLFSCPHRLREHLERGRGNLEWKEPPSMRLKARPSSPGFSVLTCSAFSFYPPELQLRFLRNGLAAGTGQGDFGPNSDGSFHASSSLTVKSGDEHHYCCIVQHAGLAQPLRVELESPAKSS
T1 sequence (P61769 21-119 limits assumed, form in doubt, chain 2 of 2): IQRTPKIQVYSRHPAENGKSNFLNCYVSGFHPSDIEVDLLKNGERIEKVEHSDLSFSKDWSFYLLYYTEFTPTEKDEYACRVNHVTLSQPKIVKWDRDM

B1: Simponi (golimumab), commercially available (antibody, human IgG1, kappa)
heavy: not shown
light: not shown
notes: Bought product (Janssen Biologics B.V.); It differs from Antibody A by a higher NGNA glycosylation level; also called commercially available anti-TNF-α antibody; copies: 2 + 2
Take B1: the dissociation constant Kd lay within 6.09 to 8.67 nM in assay [1], 93 to 111 nM in assay [2] and 20.1 to 42.2 nM in assay [3].
